# Reference: paper PMC11050402
# Experiments:
# [1] = molecular target: human epidermal growth factor receptor type 2 (HER2) (human (endogenous in SKOV-3 and BT-474)) (UniProt P04626); experiment: radioligand binding; LigandTracer Yellow on living SKOV-3 cells, 3 and 9 nM (1, 3 and 9 nM for [177Lu]Lu-G3), room temperature, with 100 nM human serum albumin; InteractionMap analysis, 1:2 model; apparent
# [2] = molecular target: human serum albumin (human) (UniProt P02768); experiment: SPR; Biacore T200, as described by Yin and co-authors (ref. 40); DOTA conjugates without radionuclide
# Sequence of UniProt P02768 (P02768 25-609): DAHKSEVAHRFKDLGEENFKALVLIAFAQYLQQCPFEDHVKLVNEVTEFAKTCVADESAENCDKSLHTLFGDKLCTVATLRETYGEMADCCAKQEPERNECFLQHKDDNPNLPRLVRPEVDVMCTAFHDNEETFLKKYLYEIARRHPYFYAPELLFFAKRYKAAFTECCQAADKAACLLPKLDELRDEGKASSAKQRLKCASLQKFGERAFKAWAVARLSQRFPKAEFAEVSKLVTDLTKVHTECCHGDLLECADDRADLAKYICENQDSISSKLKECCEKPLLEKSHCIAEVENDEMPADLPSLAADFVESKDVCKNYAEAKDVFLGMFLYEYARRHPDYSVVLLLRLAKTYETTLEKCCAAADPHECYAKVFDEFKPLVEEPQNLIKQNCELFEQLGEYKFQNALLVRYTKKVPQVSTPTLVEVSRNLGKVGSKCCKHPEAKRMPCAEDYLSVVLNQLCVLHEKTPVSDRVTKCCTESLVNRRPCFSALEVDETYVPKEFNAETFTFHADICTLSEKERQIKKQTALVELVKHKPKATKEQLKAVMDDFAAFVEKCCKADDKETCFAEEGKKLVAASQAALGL
# [3] = molecular target: murine serum albumin (murine) (UniProt P07724); experiment: as above
# Sequence of UniProt P07724 (P07724 25-608): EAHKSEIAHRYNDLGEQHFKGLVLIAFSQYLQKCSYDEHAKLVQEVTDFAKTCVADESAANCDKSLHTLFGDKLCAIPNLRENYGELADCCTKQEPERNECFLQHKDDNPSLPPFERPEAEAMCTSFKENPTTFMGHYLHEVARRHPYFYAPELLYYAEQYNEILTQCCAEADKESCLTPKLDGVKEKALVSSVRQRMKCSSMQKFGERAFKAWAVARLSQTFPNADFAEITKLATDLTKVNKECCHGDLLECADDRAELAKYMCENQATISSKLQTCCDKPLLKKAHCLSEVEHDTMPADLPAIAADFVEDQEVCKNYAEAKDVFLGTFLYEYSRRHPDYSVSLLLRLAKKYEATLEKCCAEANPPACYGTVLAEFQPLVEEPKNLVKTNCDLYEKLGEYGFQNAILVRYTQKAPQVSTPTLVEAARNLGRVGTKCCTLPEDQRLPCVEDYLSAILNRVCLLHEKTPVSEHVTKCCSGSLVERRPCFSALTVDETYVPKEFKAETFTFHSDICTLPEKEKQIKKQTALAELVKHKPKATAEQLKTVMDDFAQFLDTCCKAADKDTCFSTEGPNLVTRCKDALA
"KD2 (second interaction, 1:2 model) [1] [nM]",Kd [2] [nM],koff [2] [s⁻¹],kon [2] [M⁻¹ s⁻¹],Kd [3] [nM],koff [3] [s⁻¹],kon [3] [M⁻¹ s⁻¹],"KD1 (first interaction, 1:2 model) [1] [pM]",Substance
34,,,,,,,,non-ABD-fused DARPin G3 (control protein) (designed binder)
67,35.4,0.000302,8530,81.3,0.00191,23500,1290,ABD-G3-DOTA (designed binder)
24,1.82,0.000238,131000,8.46,0.00518,61300,901,G3-ABD-DOTA (designed binder)
